Test results reported in the supplement of paper PMC9170038.

Tested on: K4 kissing-loop RNA reporter
Experiment: apparent KD of K4 kissing-loop reporter; higher = weaker reporter binding
Conditions: Eterna round: R107; input ligand: theophylline 20 uM
Protocol: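 RNA-MaP round R107: designed RNA switches with theophylline, tryptophan, arginine or FMN aptamers are transcribed on-chip within common flanks. They are titrated with a labelled K4 kissing-loop RNA reporter in RNA-MaP buffer (100 mM Tris pH 7.5, 80 mM KCl, 4 mM MgCl2), without ligand or with the indicated ligand. Median apparent KD per design.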
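Also: bound reporter read as fluorescence of individual clusters on recovered sequencing chips by microscopy, with normalized cluster intensities fitted with a binding model.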

Sequence | apparent KD of K4 kissing-loop reporter [nM]
AGACUACCACACUGUCAAUAGACAGUGAACUAGGAUAUGCUGAUAAGCAGAAGGAGUGAUGUUCCUAGGUAGUCAAUAAAAUAAU [FmnAX 13 #SwitchBubble #StaticStem #K4Early] | 447
GGCUUGCCAGUGAUGUUGGCAUAUUCUGAAGGAGCGCGUGAAAACGCAGGUAGGUCGCAGAACCUUGCCAACUAUUUUAGUUGCC [Ex Arginine A K4 26] | 334
CUAUCCCGCCGUGUACGUAAUAUACGGUGCCGAGGACCGGUACGGCCGCCACUCGAUAAGCUUUGUCGGAGUGAUGUUCCGACCG [Maais] | 280
GCACUCGAAAGAGUGCCUCUCGCCAUCACGUAGGAUAUCUGGAAACAGAGAAGGAUGGCAGUGAUGUUGCUUUCGAUGGCGAGAG | 174
GAUUGUGAUGGAAACAUCGCAAUCUCUGAAGGAGCGCGUGAAAACGCAGGUAGGUCGCAGGACGACUUUGACAGUGAUGUUGUCG [Ex Arginine A K4 4] | 216
AAGUGUGUGGCGGCCGCCACUAGAAUCCAGUGAUGUUGGAAUAAUCAAAUAAAUAAUAAUAAACAUAGGACCGGGCCAUAUAGAA [Same State - Tryptophan B (Freestyle 1)] | 157
AUGCGCGCGGCGGCCGCCACUCGCAUGAGAGUGAUGUUCUCGCCGUGACCGUAAGGUCGCGGUGUGAGGACCGGGCCGGGCUGCG [#2 Same State - Tryptophan B Attempt #22 (HarryS)] | 213
ACAGUCGGCUGUGAUACCAGUCGUAUAACAACAUGUUGCAGUGAUGUUGCGAGAUAGGAUGACCCUUGGCAGCACUCAGUACGAC [Same State Theophylline B GF11] | 328
AAAUGAAGGGCUCGCAGUGAUGUUGCGAGACGAGGACCGGUACGGCCGCCACUCGGCCGCUACUUUGACUCGGGCUUUAAGCUAC [Usarusteer] | 140
UGAUACCAGACGGCCGCCACUGCGCCAGUCAAUGACUGAGCGCGGUGGCGCUCAGUGAUGUUGAGCAGGACCGGGUCUGGUAUCU [Mod of Eli's TrypBX 8 v5] | 144
CCAUCGCUAUUCGAUACCAGCUACUUAGUGAUGUUAAGUUAAAAUCCACUGUAGGUGGAAAGCCCUUGGCAGCGAAUAGUGAUGG [Theophylline B K4 23] | 117

Same assay, conditions: Eterna round: R107; input ligand: tryptophan 2.4 mM

Sequence | apparent KD of K4 kissing-loop reporter [nM]
UUUUUAAACUCGGCCGCCACUCAAAUGGGAGUGAUGUUCCCAAAAUAAUAAAUAAAUAAUAAUAAGAGGACCGGGAGAAAUUUUU [Same State - Trytophan B] | 81.3
GAUAAUAGAAUAGAUACCAGUCAAGACCUAGUGAUGUUAGGGAGAUAAGUAGAAUGAAUUGGCCCUUGGCAGCUAUAAUAGUAGG [Default title] | 73.4
GCCGUACGCAUGGAUACCAGCUAUUAGAGUGAUGUUCUAUGGCCCUGCCAAUGGAGCUGUAGCCCUUGGCAGCCAUGCGUACGGC | 104
GGGAGUAGUGCGGCCGCCACUGAGAAAGUAGAAGAAUAUAGUGAUGUUAUAUAGGAAUAAAAGAACAGGACCGGGCAUUAGAUUU [SSTRyptB.U] | 174
AUAAACUUGCAGUGAUGUUGCAAGUAAGACUAGGAUAUCAGGAAACUGAGAAGGAGUCAUCUCCUUCAAACAUCACUAUGAAGGA [[K1]-[K2]-[F1]-[F2]-[F]'-[K]'-[F]''_Design5] | 331
AAUAGCCGUACUAGUGAUGUUAGUGUGGAUACCAGUUCAUGGACGAACCCUUGGCAGCCAUCAAAUAUAUAUGAGGGAUCAUCAC [theeternabot_exclusion_KL_Theo_A_47] | 320
CAUACUUGCCGACCGCGGCACGCUAGUGAUACCAGUAACACCGUCUACCCUUGGCAGCACGAGAGAGUGAUGUUUUCAGCAGCCA [theeternabot_sameState_KL_Theo_A_3] | 857
UUUGUAUCGGGAAGGAGCGUGAAUGAUAAUGGAUAUAGUGAUGUUAUAUAUAAGAACGAAUCACAGGUAGGUCGCCCGGAUGACU [SSArgB.P] | 678
UGACAUUGCUCAGAUACCAGACUUGAGGAUCACCCAGGUGCCAAAUACGUACAAAUAAAAGUCCCUUGGCAGCUGAGCAAUGUCU [TheoBX 12] | 29.3
GCCGUAGAUUGAAGGAGCGAGGCUAAUUAAAGACCGAGUGAUGUUCGGGAGCGUGAAACUCCUCAGGUAGGUCGCAAUCUACGGC | 180
GGGAGUAGUGCGGCCGCCACUGUGAAAGAAGAAGAAUAUAGUGAUGUUAUAUAGGAAGGGAAGAAUAGGACCGGGCAUUAGAUUU [SSTRyptB.aA] | 186
CAAUGAGUAUAAGAUGAUAUCAUCACAGAAGGAGCGAGUGAUAACUCAGGUAGGUCGCUGAAUUUGUCGAGUGAUGUUCGAUAGA [whbob_SS_Arginine_A_sa119] | 182
CGGACUGCAGGAAGGAGCGGCGGACGGAGUGAUGUUCCGGGUAGUGAUGUUACCAAACACCGCCAGGUAGGUCGCCUGUUGCUCC [Same State Arginine B GF8] | 147
AUUUUUUUAUCAGGAUAUUAGUGAUGGUUUUUUUUGUUAGUGAUGUUGAUAUUUGUUUUAUGUAUUUAAGAAGGGAUUGAGAUGU [tzzsullin] | 84.2
GCGCGUCAUGUCAGCGGUGACACUGUCGAUACCAGCGCCGAAAGGCGCCCUUGGCAGCGACGUGCUGGAGUGAUGUUCCAGCGUC [#2 Exclusion - Theophylline A Attempt #24 (HarryS)] | 139
UUUCUUUUCUUUUGCGAUCCUAUCCCUUAUAAGGAUAUCUAGAAAUAGAGAAGGUAUGCAGUGAUGUUGCUUGGGAUAGGAUCGC | 241
